Ten substances from FireProtDB (doi:10.1016/0167-4838(95)00124-d) can be followed below.

For the data set the following is noted: Rattus norvegicus, pH 7.2, Absorbance, MOPS 0.1 M, reversible: Yes; for ddG of mutation (higher = less stable) / unfolding free energy: 25 °C, Urea; for Tm / change of melting temperature, mutant - wild type (higher = more stable): Thermal.

Cytochrome c, somatic H27V|H34F, P62898 H27V H34F, sequence (P62898 whole entry H27V/H34F): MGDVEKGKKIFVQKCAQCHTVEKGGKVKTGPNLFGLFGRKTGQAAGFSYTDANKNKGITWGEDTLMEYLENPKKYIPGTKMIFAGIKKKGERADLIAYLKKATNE
Cytochrome c, somatic H34F, P62898, sequence (P62898 whole entry H34F): as the sequence (P62898 whole entry H27V/H34F) above, with V27H counted along it
Cytochrome c, somatic P31A, P62898, sequence (P62898 whole entry P31A): as the sequence (P62898 whole entry H27V/H34F) above, with V27H, P31A, F34H counted along it
Cytochrome c, somatic Y68F, P62898, sequence (P62898 whole entry Y68F): as the sequence (P62898 whole entry H27V/H34F) above, with V27H, F34H, Y68F counted along it
Cytochrome c, somatic N53I, P62898, sequence (P62898 whole entry N53I): as the sequence (P62898 whole entry H27V/H34F) above, with V27H, F34H, N53I counted along it
Cytochrome c, somatic P31A|Y68F, P62898 P31A Y68F, sequence (P62898 whole entry P31A/Y68F): as the sequence (P62898 whole entry H27V/H34F) above, with V27H, P31A, F34H, Y68F counted along it
Cytochrome c, somatic H27V, P62898, sequence (P62898 whole entry H27V): as the sequence (P62898 whole entry H27V/H34F) above, with F34H counted along it
Cytochrome c, somatic H27V|N53I, P62898 H27V N53I, sequence (P62898 whole entry H27V/N53I): as the sequence (P62898 whole entry H27V/H34F) above, with F34H, N53I counted along it
Cytochrome c, somatic P31V, P62898, sequence (P62898 whole entry P31V): as the sequence (P62898 whole entry H27V/H34F) above, with V27H, P31V, F34H counted along it
Cytochrome c, somatic wild type, P62898, sequence (P62898 whole entry): as the sequence (P62898 whole entry H27V/H34F) above, with V27H, F34H counted along it

As a reminder, the Tm is the temperature at the midpoint of the melting transition. For Cytochrome c, somatic H27V, P62898, under “structure 1I5T”, the “ddG of mutation (higher = less stable)” value is 3.78 kcal/mol; the unfolding free energy was determined as 5.72 kcal/mol; the Tm came to 50 °C; the “change of melting temperature, mutant - wild type (higher = more stable)” value (from here on “change of melting temperature, mutant”) was -10 °C.
In the same order, the values of “Cytochrome c, somatic H27V|H34F, P62898 H27V H34F” are 2.15 kcal/mol, 7.35 kcal/mol, 53 °C and -7 °C.
Turning to “Cytochrome c, somatic H27V|N53I, P62898 H27V N53I”, for the setting “structure 1I5T”, the “ddG of mutation (higher = less stable)” value turned out to be 1.86 kcal/mol and the unfolding free energy was 7.64 kcal/mol.
Take Cytochrome c, somatic H34F, P62898: for the setting “structure 1I5T”, the “ddG of mutation (higher = less stable)” value was -0.67 kcal/mol, the unfolding free energy was 10.2 kcal/mol and the Tm turned out to be 69 °C.
For Cytochrome c, somatic N53I, P62898, where the note is “structure 1I5T”, the unfolding free energy was 6.36 kcal/mol; the Tm amounted to 80 °C; the “change of melting temperature, mutant” value worked out at 20 °C.
With Cytochrome c, somatic P31A, P62898, under “structure 1I5T”, the “ddG of mutation (higher = less stable)” value stood at 5.74 kcal/mol; the unfolding free energy was 3.76 kcal/mol; the Tm came out at 51 °C; the “change of melting temperature, mutant” value was -9 °C.
For the substance “Cytochrome c, somatic P31A|Y68F, P62898 P31A Y68F”, for the setting “structure 1I5T”, the unfolding free energy worked out at 6.74 kcal/mol; the Tm came out at 62 °C; the “change of melting temperature, mutant” value came out at 2 °C.
Turning to Cytochrome c, somatic P31V, P62898, where the note is “structure 1I5T”, the Tm is 49 °C and the “change of melting temperature, mutant” value was -11 °C.
For Cytochrome c, somatic Y68F, P62898, under “structure 1I5T”, the unfolding free energy was 7.19 kcal/mol; the Tm is 90 °C; the “change of melting temperature, mutant” value turned out to be 30 °C.
Cytochrome c, somatic wild type, P62898: the unfolding free energy came out at 9.5 kcal/mol and the Tm was found to be 60 °C.
